Reference: patent US20140044730A1 (Regeneron, published 2014)

Key:
[1] = target: T1, human PCSK9 with a C-terminal myc-myc-hexahistidine tag (human, UniProt Q8NBP7 31-692, limits assumed); test: SPR 25C, mAb captured;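 further: biacore CM4 surface bearing anti-human Fc antibody capturing the mAbs, PCSK9 binding and release rates fitted with a one-to-one model, KD and half-life derived from those rates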
T1 construct: also called hPCSK9-mmH; hPCSK9-mmh; not shown: C-terminal myc-myc-hexahistidine tag

[2] = target: T1, human PCSK9 with a C-terminal …; test: SPR 25C pH 7.2, mAb captured;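 further: biacore SPR, antibodies captured on anti-human Fc CM4 chip with PCSK9 flowed as analyte, rate constants from a one-to-one kinetic fit, KD and half-life derived from them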
[3] = target: T1, human PCSK9 with a C-terminal …; test: SPR 25C pH 5.75, mAb captured;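 further: biacore surface with anti-human Fc antibody capturing the antibodies, PCSK9 as analyte, one-to-one kinetic fit, KD as kd over ka, half-life derived from kd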
Protocol: A Biacore CM4 sensor chip was derivatized with a monoclonal mouse anti-human Fc antibody to capture human antibodies. The histidine substitution variant anti-PCSK9 antibodies were captured onto the anti-human Fc sensor surface from culture medium after transient expression in Chinese hamster ovary (CHO) cells. […] Kinetic association (kₐ) and dissociation (kd) rate constants were determined by processing and fitting the data to a 1:1 binding model using Scrubber 2.0 curve fitting software. Binding dissociation equilibrium constants (KD) and dissociative half-lives (t_{1/2}) were calculated from the kinetic rate constants as: KD (M)=kd/kₐ; and t_{1/2} (min)=(In2/(60*kd).

Binder | KD ratio pH 5.75/pH 7.2 [1] | t½ ratio pH 5.75/pH 7.2 [1] | Kd [2] | t½ [2] | Kd [3] | t½ [3]
VH-N52H (antibody, V domains shown, His variant of 300N) VH: EMQLVESGGGLVQPGGSLRLSCAASGFTFSSHWMKWVRQAPGKGLEWVANIHQDGSEKYYVDSVKGRFTISRDNAKNSLFLQMNSLRAEDTAVYYCARDIVLMVYDMDYYYYGMDVWGQGTTVTVSS VL: not shown | 1.84 | 0.16 | 2.35 nM | 21 min | 4.33 nM | 3 min
VH-S56H (antibody, V domains shown, His variant of 300N) VH: EMQLVESGGGLVQPGGSLRLSCAASGFTFSSHWMKWVRQAPGKGLEWVANINQDGHEKYYVDSVKGRFTISRDNAKNSLFLQMNSLRAEDTAVYYCARDIVLMVYDMDYYYYGMDVWGQGTTVTVSS VL: not shown | 1.11 | 0.23 | 1.02 nM | 40 min | 1.13 nM | 9 min
VH-S30H (antibody, V domains shown, His variant of 300N) VH: EMQLVESGGGLVQPGGSLRLSCAASGFTFHSHWMKWVRQAPGKGLEWVANINQDGSEKYYVDSVKGRFTISRDNAKNSLFLQMNSLRAEDTAVYYCARDIVLMVYDMDYYYYGMDVWGQGTTVTVSS VL: not shown | 1.03 | 0.33 | 1.06 nM | 41 min | 1.09 nM | 13 min
VH-Y110H (antibody, V domains shown, His variant of 300N) VH: EMQLVESGGGLVQPGGSLRLSCAASGFTFSSHWMKWVRQAPGKGLEWVANINQDGSEKYYVDSVKGRFTISRDNAKNSLFLQMNSLRAEDTAVYYCARDIVLMVYDMDYHYYGMDVWGQGTTVTVSS VL: not shown | 0.02 | 9.97 | 194 nM | 1 min | 3.37 nM | 7 min
VH-V116H (antibody, V domains shown, His variant of 300N) VH: EMQLVESGGGLVQPGGSLRLSCAASGFTFSSHWMKWVRQAPGKGLEWVANINQDGSEKYYVDSVKGRFTISRDNAKNSLFLQMNSLRAEDTAVYYCARDIVLMVYDMDYYYYGMDHWGQGTTVTVSS VL: not shown | 2.33 | 0.26 | 2.62 nM | 43 min | 6.11 nM | 11 min
VK-L29H (antibody, V domains shown, His variant of 300N) VH: EMQLVESGGGLVQPGGSLRLSCAASGFTFSSHWMKWVRQAPGKGLEWVANINQDGSEKYYVDSVKGRFTISRDNAKNSLFLQMNSLRAEDTAVYYCARDIVLMVYDMDYYYYGMDVWGQGTTVTVSS VL: not shown | 3.12 | 0.16 | 12.9 nM | 7 min | 40.2 nM | 1 min
VK-G34H (antibody, V domains shown, His variant of 300N) VH: EMQLVESGGGLVQPGGSLRLSCAASGFTFSSHWMKWVRQAPGKGLEWVANINQDGSEKYYVDSVKGRFTISRDNAKNSLFLQMNSLRAEDTAVYYCARDIVLMVYDMDYYYYGMDVWGQGTTVTVSS VL: not shown | 131 | 0.38 | 18 nM | 1 min | 2370 nM | 0.3 min
VH-T28H (antibody, V domains shown, His variant of 300N) VH: EMQLVESGGGLVQPGGSLRLSCAASGFHFSSHWMKWVRQAPGKGLEWVANINQDGSEKYYVDSVKGRFTISRDNAKNSLFLQMNSLRAEDTAVYYCARDIVLMVYDMDYYYYGMDVWGQGTTVTVSS VL: not shown | 0.49 | 0.8 | 2.96 nM | 20 min | 1.45 nM | 16 min
VH-Y111H (antibody, V domains shown, His variant of 300N) VH: EMQLVESGGGLVQPGGSLRLSCAASGFTFSSHWMKWVRQAPGKGLEWVANINQDGSEKYYVDSVKGRFTISRDNAKNSLFLQMNSLRAEDTAVYYCARDIVLMVYDMDYYHYGMDVWGQGTTVTVSS VL: not shown | 0.36 | 2.29 | 19.4 nM | 3 min | 7.01 nM | 6 min
VH-S31H (antibody, V domains shown, His variant of 300N) VH: EMQLVESGGGLVQPGGSLRLSCAASGFTFSHHWMKWVRQAPGKGLEWVANINQDGSEKYYVDSVKGRFTISRDNAKNSLFLQMNSLRAEDTAVYYCARDIVLMVYDMDYYYYGMDVWGQGTTVTVSS VL: not shown | 1 | 0.34 | 1.01 nM | 48 min | 1 nM | 16 min
VH-W33H (antibody, V domains shown, His variant of 300N) VH: EMQLVESGGGLVQPGGSLRLSCAASGFTFSSHHMKWVRQAPGKGLEWVANINQDGSEKYYVDSVKGRFTISRDNAKNSLFLQMNSLRAEDTAVYYCARDIVLMVYDMDYYYYGMDVWGQGTTVTVSS VL: not shown | 1.39 | 0.03 | 15.4 nM | 4 min | 21.5 nM | 0.1 min
VH-R98H (antibody, V domains shown, His variant of 300N) VH: EMQLVESGGGLVQPGGSLRLSCAASGFTFSSHWMKWVRQAPGKGLEWVANINQDGSEKYYVDSVKGRFTISRDNAKNSLFLQMNSLRAEDTAVYYCAHDIVLMVYDMDYYYYGMDVWGQGTTVTVSS VL: not shown | 1.75 | 0.28 | 4.29 nM | 23 min | 7.52 nM | 6 min
VH-Y109H (antibody, V domains shown, His variant of 300N) VH: EMQLVESGGGLVQPGGSLRLSCAASGFTFSSHWMKWVRQAPGKGLEWVANINQDGSEKYYVDSVKGRFTISRDNAKNSLFLQMNSLRAEDTAVYYCARDIVLMVYDMDHYYYGMDVWGQGTTVTVSS VL: not shown | 1.02 | 1.37 | 242 nM | 0 min | 247 nM | 1 min
VH-Q53H (antibody, V domains shown, His variant of 300N) VH: EMQLVESGGGLVQPGGSLRLSCAASGFTFSSHWMKWVRQAPGKGLEWVANINHDGSEKYYVDSVKGRFTISRDNAKNSLFLQMNSLRAEDTAVYYCARDIVLMVYDMDYYYYGMDVWGQGTTVTVSS VL: not shown | 1.29 | 0.19 | 1.22 nM | 32 min | 1.57 nM | 6 min
VK-G56H (antibody, V domains shown, His variant of 300N) VH: EMQLVESGGGLVQPGGSLRLSCAASGFTFSSHWMKWVRQAPGKGLEWVANINQDGSEKYYVDSVKGRFTISRDNAKNSLFLQMNSLRAEDTAVYYCARDIVLMVYDMDYYYYGMDVWGQGTTVTVSS VL: not shown | 1.65 | 0.24 | 1.11 nM | 36 min | 1.83 nM | 9 min
VH-Y105H (antibody, V domains shown, His variant of 300N) VH: EMQLVESGGGLVQPGGSLRLSCAASGFTFSSHWMKWVRQAPGKGLEWVANINQDGSEKYYVDSVKGRFTISRDNAKNSLFLQMNSLRAEDTAVYYCARDIVLMVHDMDYYYYGMDVWGQGTTVTVSS VL: not shown | 2.2 | 0.83 | 292 nM | 1 min | 643 nM | 0 min
